For 3 molecules, neutralization of TNF-α-induced cytotoxicity on L929 cells (MTT, 1 ng/mL TNF-α with actinomycin D, peptide 1 pM to 10 μM); blocks TNF-α with TNFR1 and Kd results are on record in PMC12024540, “Peptide-Based Regulation of TNF-α-Mediated Cytotoxicity” (Biomolecules, 2025).

One may read the Kd as the concentration at which binding is half-saturated.

Assay [1] has as its target recombinant human tumor necrosis factor alpha (rhTNF-α) (human).
The target is the same in assay [2]. The experiment in a line: MST; labelled rhTNF-α (RED-NHS 2nd Generation) at 20 nM, peptide titrated in 16 serial dilutions, PBS, 20 min incubation in the dark, Monolith NT.115 Pico, medium MST power.
Assay [3] shares this target. The source holds these as a separate data set.

Read-outs that look alike come from different tables or passages of the source.

recombinant human tumor necrosis factor alpha (rhTNF-α) (human), sequence (P01375 77-233): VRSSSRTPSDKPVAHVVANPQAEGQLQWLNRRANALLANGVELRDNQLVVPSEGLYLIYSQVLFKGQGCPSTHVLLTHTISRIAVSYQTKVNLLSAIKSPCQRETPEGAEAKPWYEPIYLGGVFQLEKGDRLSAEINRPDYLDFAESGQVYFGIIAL

As for KGGGSGGGSHIHDDLLRYYGW [OB1 peptide], the neutralization of TNF-α-induced cytotoxicity on L929 cells (MTT, 1 ng/mL TNF-α with actinomycin D, peptide 1 pM to 10 μM); blocks TNF-α with TNFR1 in assay [1] was found to be 4.6 nM. The Kd in assay [2] stood at 300 nM.

Regarding KGGGSGGGSGGGSRKEMGQV [OB2 peptide], the neutralization of TNF-α-induced cytotoxicity on L929 cells (MTT, 1 ng/mL TNF-α with actinomycin D, peptide 1 pM to 10 μM); blocks TNF-α with TNFR1 in assay [1] came out at 0.081 nM. Moreover, the Kd in assay [2] is 46.7 nM.

Take KRWSRYFWVDMTGTR [OB8 peptide]: in assay [2], the Kd worked out at 3890 nM. Further, in assay [3], the neutralization of TNF-α-induced cytotoxicity on L929 cells (MTT, 1 ng/mL TNF-α with actinomycin D, peptide 1 pM to 10 μM); blocks TNF-α with TNFR1 was 7500 nM.
